The target of this assay is T1, TSPAN8 (UniProt P19075 1-237, limits assumed).
T1 sequence (looked up): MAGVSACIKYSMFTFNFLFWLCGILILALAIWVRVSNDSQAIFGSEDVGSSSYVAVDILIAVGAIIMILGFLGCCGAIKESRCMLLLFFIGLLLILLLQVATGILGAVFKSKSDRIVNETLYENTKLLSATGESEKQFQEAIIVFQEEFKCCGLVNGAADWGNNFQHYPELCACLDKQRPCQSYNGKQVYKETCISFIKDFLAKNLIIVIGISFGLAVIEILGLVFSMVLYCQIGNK
The assay is described as follows: cell-based or functional assay.

The record followed here is patent publication US20210371490A1 (MILTENYI BIOTEC B V, published 2021).

B1: TSPAN8_hl_Sig4 CAR (other)
chain: EVKLLESGGGLVQPGGSMRLSCAASGFTFTDFYMNWIRQPAGKAPEWLGFIRNKASGYTTEYNPSVKGRFTISRDNTQNMLYLQMNTLRAEDTATYYCARAHSYYGYDYFDYWGQGVMVTVSSGGGGSGGGGSGGGGSDIQMTQSPASLSASLEEIVTITCQASQDIGNWLSWYQQKPGKSPQLLIYGATSLADGVPSRFSGSRSGTQYSLKISRLQVEDIRIYYCLQAYSAPWTFGGGTKLELKAASYPPVIVEMNSSVEAIEGSHVSLLCGADSNPPPLLTWMRDGTVLREAVAESLLLELEEVTPAEDGVYACLAENAYGQDNRTVGLSVMYAPWKPTVNGTMVAVEGETVSILCSTQSNPDPILTIFKEKQILSTVIYESELQLELPAVSPEDDGEYWCVAENQYGQRATAFNLSVEFAPVLLLESHCAAARDTVQCLCVVKSNPEPSVAFELPSRNVTVNESEREFVYSERSGLVLTSILTLRGQAQAPPRVICTARNLYGAKSLELPFQGAHRLMWAKIGPIYIWAPLAGTCGVLLLSLVITLYCKRGRKKLLYIFKQPFMRPVQTTQEEDGCSCRFPEEEEGGCELRVKFSRSADAPAYQQGQNQLYNELNLGRREEYDVLDKRRGRDPEMGGKPRRKNPQEGLYNELQKDKMAEAYSEIGMKGERRRGKGHDGLYQGLSTATKDTYDALHMQALPPR
As to B1, the “cytokine release after 24 h co-culture with AsPC1 cells (MACSPlex), against the TSPAN8 CD8a CAR T cells” value came out at 10 fold lower.
